Measurements reported in paper PMC5562721.

Target: Recombinant Ebola virus (EBOV) glycoprotein (Ebola virus (Zaire ebolavirus)) (UniProt Q05320)
Test: SEC + cross-linking

Recombinant Ebola virus (EBOV) glycoprotein (from UniProt Q05320) (natural protein)
stoichiometry N: 3
